The record followed here is US20140227287A1.

For the test, the target named is human βNGF (R&D Systems, Inc.) (human) (UniProt P01138). Description: dynamic light scattering of antibody incubated with human βNGF.
human βNGF (R&D Systems, Inc.) (human), sequence (P01138 122-241 limits assumed): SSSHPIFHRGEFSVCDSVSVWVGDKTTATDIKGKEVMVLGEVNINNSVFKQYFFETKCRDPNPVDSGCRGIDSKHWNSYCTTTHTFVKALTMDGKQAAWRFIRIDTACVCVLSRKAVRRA

As to Control IgG (antibody), the Particle size Average (d · nm), IgG + rhNGF came out at 12.6 nm·days and the Particle size Peak (d · nm), IgG + rhNGF was found to be 11.7 nm·days.
